Patent US20090053233A1 (LABORATOIRE FRANCAIS DU FRACTIONNEMENT ET DES …, published 2009)
Changes are numbered by the printed parent chain.

T1: CD20 antigen expressed on Raji cells (UniProt P11836 1-297, limits assumed)
T1 construct: whole, on cells; Raji is a human B cell line
T1 sequence (looked up): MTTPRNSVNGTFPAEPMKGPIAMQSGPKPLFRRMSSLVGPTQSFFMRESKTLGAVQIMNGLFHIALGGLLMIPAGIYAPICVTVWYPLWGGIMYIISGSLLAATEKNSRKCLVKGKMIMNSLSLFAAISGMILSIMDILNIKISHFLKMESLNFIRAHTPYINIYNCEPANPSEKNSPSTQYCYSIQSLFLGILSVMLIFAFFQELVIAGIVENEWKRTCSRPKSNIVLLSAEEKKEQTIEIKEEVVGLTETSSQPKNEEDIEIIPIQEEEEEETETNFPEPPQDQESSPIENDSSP

B1: anti-CD20 chimeric antibody EMAB6 produced by clone R509 (YB2/0 cell line) (antibody, human IgG1, kappa)
heavy: not shown
light: QIVLSQSPAILSASPGEKVTMTCRASSSVSYMHWYQQKPGSSPKPWIYATSNLASGVPARFSGSGSGTSYSFTISRVEAEDAATYYCQQWTFNPPTFGGGTRLEINRTVAAPSVFIFPPSDEQLKSGTASVVCLLNNFYPREAKVQWKVDNALQSGNSQESVTEQDSKDSTYSLSSTLTLSKADYEKHKVYACEVTHQGLSSPVTKSFNRGEC
notes: Murine-human chimeric IgG1 kappa (murine CAT-13.6E12 variable regions, human gamma1 and kappa constant regions), produced in rat YB2/0 cells, low fucose; The cloned V fragments carry the natural signal peptide; also called chimeric EMAB6 antibody; AMAB6
B2: anti-CD20 chimeric antibody EMAB603 produced by clone R603 (YB2/0 cell line) (antibody, human IgG1, kappa)
heavy: not shown
light: B1 light with N106K
notes: Murine-human chimeric IgG1 kappa; Produced in rat YB2/0 cells; also called chimeric EMAB603 antibody; EMBA603

Tests used:
[1] = target: T1, CD20 antigen expressed on Raji cells; test: flow cytometry competition on Raji cells; competitor CAT-13.6E12 detected with PE anti-mouse IgG
[2] = target: CD16 (FcγRIIIA) receptor expressed on Jurkat-CD16 cells (human, UniProt P08637 17-208); test: cell-based or functional assay
[3] = target: T1, CD20 antigen expressed on Raji cells; test: specificity study, as for EMAB6 (competition with CAT-13.6E12 on Raji cells); no details given

Sequence of CD16 (FcγRIIIA) receptor expressed on Jurkat-CD16 cells (P08637 17-208): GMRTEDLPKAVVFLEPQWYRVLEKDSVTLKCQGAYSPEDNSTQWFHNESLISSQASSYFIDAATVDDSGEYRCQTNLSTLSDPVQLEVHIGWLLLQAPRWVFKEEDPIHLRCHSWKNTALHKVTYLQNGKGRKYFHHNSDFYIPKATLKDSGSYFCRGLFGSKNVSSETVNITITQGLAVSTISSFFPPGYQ

Row | Binder | binding result [1] | Rituxan® EC50/EMAB6 EC50 ratio, IL-2 secretion by Jurkat-CD16 cells in the presence of Raji cells [2] [ratio] | binding result [3]
1 | B1 | binds | ~15 | –
2 | B2 | – | – | binds
